In patent publication US20080160570:

Molecular target: fusion protein ubiquitin-growth hormone (hybrid polypeptide)
Sequence (chain, as listed by the source): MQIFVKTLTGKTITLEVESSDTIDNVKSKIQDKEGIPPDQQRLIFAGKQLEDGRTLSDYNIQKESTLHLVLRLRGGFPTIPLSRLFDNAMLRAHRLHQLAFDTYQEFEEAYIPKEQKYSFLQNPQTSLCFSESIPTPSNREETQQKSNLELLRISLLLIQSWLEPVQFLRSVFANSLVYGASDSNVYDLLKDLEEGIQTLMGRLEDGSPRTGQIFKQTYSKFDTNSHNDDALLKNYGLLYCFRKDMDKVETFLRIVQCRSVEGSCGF

Protein	enzymatic cleavage of the carrier protein ubiquitin from growth hormone (37° C., 1 h); amount of fusion protein per amount of enzyme
UBP1ΔC2 (UBP1 protease mutant) (protein) GGFIAGLVNDGNTCFMNSVLQSLASSRELMEFLDNNVIRTYEEIEQNEHNEEGNGQESAQDEATHKKNTRKGGKVYGKHKKKLNRKSSSKEDEEKSQEPDITFSVALRDLLSALNAKYYRDKPYFKTNSLLKAMSKSPRKNILLGYDQEDAQEFFQNILAELESNVKSLNTEKLDTTPVAKSELPDDALVGQLNLGEVGTVYIPTEQIDPNSILHDKSIQNFTPFKLMTPLDGITAERIGCLQCGENGGIRYSVFSGLSLNLPNENIGSTLKLSQLLSDWSKPEIIEGVECNRCALTAAHSHLFGQLKEFEKKPEGSIPEKPINAVKDRVHQIEEVLAKPVIDDEDYKKLHTANMVRKCSKSKQILISRPPPLLSIHINRSVFDPRTYMIRKNNSKVLFKSRLNLAPWCCDINEINLDARLPMSKKEKAAQQDSSEDENIGGEYYTKLHERFEQEFEDSEEEKEYDDAEGNYASHYNHTKDISNYDPLNGEVDGVTSDDEDEYIEETDALGNTIKKRIIEHSDVENENVKDNEELQEIDNVSLDEPKINVEDQLETSSDEEDVIPAPPINYARSFSTVPATPLTYSLRSVIVHYGTHNYGHYIAFRKYRGCWWRISDETVYVVDEAEVLSTPGVFMLFYEYDFDEETGKMKDDLEAILSNNEEDDEKEQEQKGVQEPKESQEQGEGEEQEEGQEQMKFERTEDHRDISGKDVNGSHHHHHH	UBP1Δ C 2 1 µg-60 µg protein
UBP1ΔC (UBP1 protease mutant) (protein) GGDHLNYIWESWSEMTTNFRNNNSLSRWLPRSKFTHLDEEILKRGGFIAGLWNDGNTCFMNSWLQSLASSRELMEFLDNNWIRTYEEIEQNEHNEEGNGQESAQDEATHKKNTRKGGKWYGKHKKKLNRKSSSKEDEEKSQEPDITFSWALRDLLSALNAKYYRDKPYFKTNSLLKAMSKSPRKNILLGYDQEDAQEFFQNILAELESNWKSLNTEKLDTTPWAKSELPDDALWGQLNLGEWGTWYIPTEQIDPNSILHDKSIQNFTPFKLMTPLDGITAERIGCLQCGENGGIRYSWFSGLSLNLPNENIGSTLKLSQLLSDWSKPEIIEGWECNRCALTAAHSHLFGQLKEFEKKPEGSIPEKPINAWKDRWHQIEEWLAKPWIDDEDYKKLHTANMWRKCSKSKQILISRPPPLLSIHINRSWFDPRTYMIRKNNSKWLFKSRLNLAPWCCDINEINLDARLPMSKKEKAAQQDSSEDENIGGEYYTKLHERFEQEFEDSEEEKEYDDAEGNYASHYNHTKDISNYDPLNGEWDGWTSDDEDEYIEETDALGNTIKKRIIEHSDWENENWKDNEELQEIDNWSLDEPKINWEDQLETSSDEEDWIPAPPINYARSFSTWPATPLTYSLRSWIWHYGTHNYGHYIAFRKYRGCWWRISDETWYWWDEAEWLSTPGWFMLFYEYDFDEETGKMKDDLEAILSNNEEDDEKEQEQKGWQEPKESQEQGEGEEQEEGQEQMKFERTEDHRDISGKDWNGSHHHHHH	UBP1Δ C 1 µg-14 µg protein
